A word on the Kd: it is the equilibrium constant for the complex coming apart. What is called EC50 is the concentration that produces a half-maximal response. A high value points to a need for much substance.

Assay [1] deals with recombinant human FcγRIIb (R&D Systems) (human) (UniProt P31994). Kind of assay: Biacore SPR. For orientation: In SPR one partner is held on a chip, and binding of the other changes the refractive index at the surface.
The target is the same in assay [2]. Briefly: Biacore SPR, global Langmuir fit (mean ± SD, n = 4).
Assay [3] deals with FcγRI (human) (UniProt P12314). Briefly: Biacore SPR [cont.].
Assay [4] addresses FcγRIIaH (human) (UniProt P12318). Briefly: Biacore SPR [cont.].
Assay [5] concerns the target human FcγRIIIa, V158 isoform (human) (UniProt P08637). Kind of assay: Biacore SPR [cont.].
For assay [6], the target named is recombinant human FcγRIIb (R&D Systems) (human) (UniProt P31994). Briefly: Biacore SPR [cont.].
The target of assay [7] is FcγRIIb on the cell surface (UniProt P31994). Briefly: binding to FcγRIIb on the cell surface.
Assay [8] has as its target FcγRI (human) (UniProt P12314). Briefly: Biacore SPR.
Assay [9] deals with FcγRIIIaF (human) (UniProt P08637). Briefly: Biacore SPR.
The target in assay [10] is FcγRIIaH (human) (UniProt P12318). Briefly: Biacore SPR.
For assay [11], the target named is FcγRIIaR (human) (UniProt P12318). Kind of assay: Biacore SPR.
Assay [12] has as its target human FcγRIIIa, V158 isoform (human) (UniProt P08637). Kind of assay: Biacore SPR.
The target of assay [13] is FcγRIIIaF (human) (UniProt P08637). Kind of assay: Biacore SPR [cont.].
For assay [14], the target named is FcγRIIaR (human) (UniProt P12318). Kind of assay: Biacore SPR [cont.].

Chain of FcγRIIIaF (human) (P08637 17-208 limits assumed): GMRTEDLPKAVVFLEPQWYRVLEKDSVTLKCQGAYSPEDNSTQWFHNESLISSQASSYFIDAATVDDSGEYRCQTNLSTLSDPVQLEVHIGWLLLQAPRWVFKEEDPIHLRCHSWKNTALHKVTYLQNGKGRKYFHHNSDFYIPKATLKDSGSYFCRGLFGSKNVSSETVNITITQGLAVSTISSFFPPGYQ
Chain of FcγRIIaH (human) (P12318 34-217): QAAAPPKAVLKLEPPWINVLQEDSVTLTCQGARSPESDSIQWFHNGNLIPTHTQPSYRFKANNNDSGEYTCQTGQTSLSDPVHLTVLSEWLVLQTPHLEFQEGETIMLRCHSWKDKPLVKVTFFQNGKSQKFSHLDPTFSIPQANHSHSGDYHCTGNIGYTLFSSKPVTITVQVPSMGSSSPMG
Chain of FcγRIIb on the cell surface (P31994 43-310 limits assumed): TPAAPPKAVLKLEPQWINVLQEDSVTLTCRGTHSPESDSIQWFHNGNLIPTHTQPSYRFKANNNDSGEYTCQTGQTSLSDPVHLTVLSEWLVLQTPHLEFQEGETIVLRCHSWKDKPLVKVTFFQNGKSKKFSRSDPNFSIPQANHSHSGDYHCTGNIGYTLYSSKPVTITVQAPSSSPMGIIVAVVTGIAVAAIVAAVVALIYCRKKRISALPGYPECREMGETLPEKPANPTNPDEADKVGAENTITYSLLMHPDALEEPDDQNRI
Chain of recombinant human FcγRIIb (R&D Systems) (human) (P31994 46-217 limits assumed): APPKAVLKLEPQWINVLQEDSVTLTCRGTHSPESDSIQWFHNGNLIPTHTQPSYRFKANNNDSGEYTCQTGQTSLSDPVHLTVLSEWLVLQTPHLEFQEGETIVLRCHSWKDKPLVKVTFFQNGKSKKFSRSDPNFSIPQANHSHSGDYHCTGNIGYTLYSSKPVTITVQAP
Chain of FcγRI (human) (P12314 16-288 limits assumed): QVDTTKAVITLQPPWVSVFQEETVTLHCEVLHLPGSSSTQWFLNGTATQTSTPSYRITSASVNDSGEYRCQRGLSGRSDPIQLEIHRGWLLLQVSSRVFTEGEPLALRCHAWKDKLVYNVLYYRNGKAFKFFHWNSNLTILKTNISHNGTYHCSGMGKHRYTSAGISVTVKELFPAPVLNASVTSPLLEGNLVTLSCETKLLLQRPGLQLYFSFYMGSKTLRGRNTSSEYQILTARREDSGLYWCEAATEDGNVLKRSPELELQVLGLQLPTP
Chain of human FcγRIIIa, V158 isoform (human) (P08637 17-208 F176V limits assumed): as the sequence (P08637 17-208 limits assumed) above, with F160V counted along it

With G236D (antibody), the Fold (KD native IgG1/KD variant) in [1] was 1.8 fold. In assay [2], the dissociation constant (Kd) turned out to be 1000 nM.

In the case of G236D/S267E (antibody), the Kd stood at 3.71 nM in the assay with FcγRI (human) [3]; 2730 nM with FcγRIIaH (human) [4]; 579 nM in [5]; 26.6 nM in [6]; 25 nM in [2]. In assay [7], this substance displayed an EC50 of 6 nM.

Consider L328F (antibody), for which the equilibrium dissociation constant (Kd) in assay [2] is 640 nM.

Regarding Native IgG1 (antibody), the equilibrium dissociation constant (Kd) with FcγRI (human) [8] amounted to 0.329 nM; with FcγRIIIaF (human) [9] it was 1350 nM; with FcγRIIaH (human) [10], 646 nM; with FcγRIIaR (human) [11] it was 859 nM; in assay [12], 191 nM; in assay [1], 1470 nM. Moreover, in assay [2], the Kd amounted to 1800 nM. In assay [7], this substance came in with an EC50 of 440 nM.

As for S239D (antibody), the Kd in assay [2] came to 380 nM.

Consider S239D/I332E (antibody), for which the equilibrium dissociation constant (Kd) with FcγRI (human) [3] is 0.0374 nM; with FcγRIIIaF (human) [13], 28.2 nM; with FcγRIIaH (human) [4], 163 nM; with FcγRIIaR (human) [14], 68.6 nM; in assay [6], 101 nM.

Take S239D/S267E (antibody): the Fold (KD native IgG1/KD variant) in [1] stood at 150 fold. For the same substance, the Fold with FcγRI (human) [3] worked out at 23.2; in the assay with FcγRIIIaF (human) [13], 2.62; with FcγRIIaH (human) [4] it was 1.27; with FcγRIIaR (human) [14], 120; in assay [5] it was 3.74; in [6], 111. The Kd with FcγRI (human) [3] was 0.0142 nM; with FcγRIIIaF (human) [13], 516 nM; with FcγRIIaH (human) [4] it was 510 nM; with FcγRIIaR (human) [14], 7.16 nM; in assay [5], 51.2 nM; in assay [6] it was 13.3 nM. The Kd in assay [2] was determined as 12 nM. For the same substance, the EC50 in assay [7] amounted to 2 nM. The Fold (against native IgG1) in [7] was determined as 220 fold.

For the substance S267E (antibody), in assay [1], the Fold (KD native IgG1/KD variant) was 30 fold. Further, in [7], the EC50 came to 25 nM and the Fold (against native IgG1) worked out at 18 fold.

With S267E/L328F (antibody), in assay [1], the Fold (KD native IgG1/KD variant) was found to be 430 fold. Moreover, the Fold with FcγRI (human) [3] is 1.5; with FcγRIIaH (human) [4], 0.7; with FcγRIIaR (human) [14] it was 275; in [5] it was 0.038; in assay [6] it was 242. Moreover, the Kd with FcγRI (human) [3] is 0.22 nM; in the assay with FcγRIIaH (human) [4] it was 923 nM; in the assay with FcγRIIaR (human) [14] it was 3.12 nM; in assay [5], 5040 nM; in [6], 6.06 nM; in assay [2] it was 4.2 nM. The same substance came in with a 50% effective concentration (EC50) in [7] of 1.4 nM. Moreover, the Fold (against native IgG1) in assay [7] was found to be 320 fold.

Values taken from patent US20110189178A1.
